Results on 8 molecules are retold here after patent publication US20110243948A1 (LEXICON PHARMACEUTICALS, published 2011).

First the molecules themselves.
T1: hANGPTL3T (full-length HIS-tagged human ANGPTL3) (human, UniProt Q9Y5C1 17-460)
T1 construct: Human ANGPTL3 with a glycine and His6 at the C-terminus, purified from conditioned medium of infected CHO cells; also called full-length ANGPTL3T; human ANGPTL3T
T1 sequence: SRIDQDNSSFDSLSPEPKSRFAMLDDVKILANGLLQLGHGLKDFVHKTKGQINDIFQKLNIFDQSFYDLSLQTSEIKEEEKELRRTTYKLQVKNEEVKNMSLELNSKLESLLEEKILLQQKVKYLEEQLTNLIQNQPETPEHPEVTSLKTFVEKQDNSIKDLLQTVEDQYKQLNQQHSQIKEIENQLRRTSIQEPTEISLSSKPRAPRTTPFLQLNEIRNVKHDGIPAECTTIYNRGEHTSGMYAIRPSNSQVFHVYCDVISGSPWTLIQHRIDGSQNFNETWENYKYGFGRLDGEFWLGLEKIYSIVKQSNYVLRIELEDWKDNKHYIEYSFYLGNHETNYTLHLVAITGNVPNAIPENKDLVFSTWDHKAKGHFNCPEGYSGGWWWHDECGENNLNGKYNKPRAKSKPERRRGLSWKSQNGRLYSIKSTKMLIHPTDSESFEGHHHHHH

T2: mouse ANGPTL3 (mouse, UniProt Q9R182 17-455, limits assumed)
T2 sequence: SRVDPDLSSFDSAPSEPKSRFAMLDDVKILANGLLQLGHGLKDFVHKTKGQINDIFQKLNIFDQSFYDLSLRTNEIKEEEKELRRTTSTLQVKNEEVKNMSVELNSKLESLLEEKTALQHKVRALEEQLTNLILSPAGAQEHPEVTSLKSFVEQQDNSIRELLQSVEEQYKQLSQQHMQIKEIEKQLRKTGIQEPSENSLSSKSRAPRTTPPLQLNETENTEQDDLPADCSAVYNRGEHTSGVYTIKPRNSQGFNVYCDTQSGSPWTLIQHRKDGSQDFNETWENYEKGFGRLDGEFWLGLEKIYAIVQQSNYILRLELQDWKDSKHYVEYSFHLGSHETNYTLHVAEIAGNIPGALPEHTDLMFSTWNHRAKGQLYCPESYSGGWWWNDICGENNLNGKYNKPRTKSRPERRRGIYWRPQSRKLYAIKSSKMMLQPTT

T3: SP1 peptide (synthetic peptide with the sequence of the SP1 region of ANGPTL3) (mouse and human (the sequence is the …))
T3 construct: also called ANGPTL3 SP1; hANGPTL3 SP1 peptide
T3 peptide: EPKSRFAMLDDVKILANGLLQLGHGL

T4: N'-hANGPTL3T (human, UniProt Q9Y5C1 20-243)
T4 construct: also called rN'-hANGPTL3T
T4 sequence: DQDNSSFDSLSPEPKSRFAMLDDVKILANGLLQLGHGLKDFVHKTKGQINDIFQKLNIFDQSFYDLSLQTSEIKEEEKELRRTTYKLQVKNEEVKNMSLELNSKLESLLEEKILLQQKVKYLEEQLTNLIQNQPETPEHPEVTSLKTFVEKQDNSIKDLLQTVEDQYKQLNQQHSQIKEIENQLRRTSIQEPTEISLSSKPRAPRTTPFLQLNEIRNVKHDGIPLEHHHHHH

B1: antibody 5.50 (antibody, IgG2b, V domains shown)
VH: EVQLQQSGPELVKPGASVKISCKASGFTFTDYYMNWVKQSHGESLEWIGDINPNNGGTIYNQKFRGKATLTVDKSSSTAYMELRSLTSEDSAVYYCVRLPWYFDVWGTGTTVTVSS
VL: DVLMTQTPLSLPVSLGDQASISCRSSQSILHSNGNTYLEWFLQKPGQSPKLLIYKVSNRFSGVPDRFSGSGSGTDFTLKISRVEAEDLGVYYCFQGSHVPYTFGGGTKLEIKR
notes: Biotinylated in the alanine-scanning ELISA
B2: antibody 5.35 (antibody, IgG2a, V domains shown)
VH: QVTLKESGPGILHPSQTLTLTCSFSGFSLNTFGLAVGWIRQPSGKGLEWLGHIWWDDHKYYNGVLKSRLTISKDSSKKQVFLRIANVDTADTARYYCARLETGTGFAYWGQGTLVTVSA
VL: DIVLTQSTPSVPVTPGESVSISCRSSKSLLDSNGITYLYWFLQRPGQSPQLLIYRMSKLASGVPDRFSGSGSETAFTLRISRVEAEDVGVYYCMQPLEYPFTFGAGTKLELNG
notes: as for B1
B3: antibody 4.7.1 (antibody, IgG2b, V domains shown)
VH: EVQLQQSGPELVKPGASVKMSCKASGYTFTSYVMHWVKQKPGQGLEWIGYFNPYNDGTKYNEKFKGKATLTSDKSSSTAYMELSSLTSEDSAVYYCAREGDYYGYFDYWGQGTTLTVSS
VL: DIQMTQTTSSLSASLGDRVTISCRASQDISNFLNWYQQKPDGTVKLLIYYTSRLHSGVPSRFSGSGSGTDYSLTISNLEQEDIATYFCQQGNTLPPTFGGGTKLEIKR
notes: as for B1
B4: antibody 4.9.1 (antibody, IgG1, V domains shown)
VH: B3 VH with F51I, K63N, L83F
VL: B3 VL with S30R, F32Y
notes: as for B1
B5: antibody 4.8.3 (antibody, IgG2a, V domains shown)
VH: B3 VH with T30I, Y32C, F51I
VL: B3 VL with D1E, R24W, S30N, F32Y, E79K
notes: as for B1
B6: Fab fragment of antibody 4.7.1 (Fab, V domains shown)
VH: B3 VH
VL: B3 VL
B7: Fab fragment of antibody 4.9.1 (Fab, V domains shown)
VH: B3 VH with F51I, K63N, L83F
VL: B3 VL with S30R, F32Y
B8: Fab fragment of antibody 4.8.3 (Fab, V domains shown)
VH: B3 VH with T30I, Y32C, F51I
VL: B3 VL with D1E, R24W, S30N, F32Y, E79K

Substitutions are numbered along the chain they refer to. “And” between values parts separate entries of the source, which are not always exact repeats. Equal entries are not always repeated.

For the first experiment, the target named is T1, hANGPTL3T (full-length HIS-tagged human …). As to the kind of experiment: ELISA (data not shown). (In general: An ELISA detects its analyte on a solid surface through an enzyme-linked reagent.)
Regarding B1, the binding result is “binds”.

With B2, the binding result is given as “binds”.

Another experiment has as its target T2, mouse ANGPTL3. As to the kind of experiment: cell-based or functional assay.
Regarding B3, the “rescue of LPL activity (percentage increase in LPL activity in the presence of both ANGPTL3 and anti-ANGPTL3 antibody relative to ANGPTL3 alone)” value is more than 50%.

For the molecule B4, the “rescue of LPL activity (percentage increase in LPL activity in the presence of both ANGPTL3 and anti-ANGPTL3 antibody relative to ANGPTL3 alone)” value is more than 50%.

As for B5, the “rescue of LPL activity (percentage increase in LPL activity in the presence of both ANGPTL3 and anti-ANGPTL3 antibody relative to ANGPTL3 alone)” value was more than 50%.

The target in another experiment is T3, SP1 peptide (synthetic peptide with the …). In words: antibody capture ELISA (FIG. 9).
With B5, the binding result is “binds”.

The target of the next experiment is T4, N'-hANGPTL3T. In words: SPR (BIACORE 3000), antigen amine-coupled to CM5 chip, Fab injected, 1:1 model. How it is done:
(§1) The BIACORE® 3000 is a real-time biomolecular analysis system for detecting and quantifying protein-protein interactions using surface plasmon resonance technology. The following affinity constants were determined according to the manufacturer's instructions for the BIACORE® 3000 system: equilibrium dissociation constant (KD), association rate constant (kₒₙ), and dissociation rate constant (koff).
(§2) Affinity constants of the 4.7.1, 4.8.3, and 4.9.1 antibodies for N′-hANGPTL3T and hANGPTL3T protein antigens were each determined as follows. The BIACORE CM5 chip surface was coated with a protein antigen by coupling either 10 μg/ml of N′-hANGPTL3T or 20 μg/ml of hANGPTL3T to the chip surface using an Amine Coupling Kit (Product No.: BR-1000-50, GE Healthcare, Uppsala Sweden). The association and dissociation phases, which are used to determine the kₒₙ and koff constants, were generated by first injecting a Fab fragment of the antibody (generated using a Fab Preparation Kit (Product No.: 44885, Pierce, Rockford, Ill. 61105) according to the manufacturer's instructions) into the BIACORE® 3000 system having a coated chip surface for 2 minutes at a flow rate of 30 μl/min. […] The injection phase was used to determine the association rate constant, or kₒₙ. Following each injection, the Fab fragment was dissociated from the protein antigen by flowing BIACORE HBS-EP buffer (Product No.: BR-1001-88, GE Healthcare, Uppsala Sweden) for 5 minutes over the antigen-Fab complex on the BIACORE CM5 chip surface. This dissociation phase was used to determine the dissociation rate constant, or koff. Prior to the next injection, the BIACORE chip surface was regenerated by injecting 10 mM HCl at a flow rate of 100 μl/min for 30 seconds.
(Surface plasmon resonance follows binding to a sensor surface in real time, without labels.)
One may read the Kd as a measure of binding affinity in units of concentration. A lower Kd goes with a tighter complex. One may read the koff as the first-order rate constant of dissociation. A low value points to slow dissociation. For orientation: kon means a measure of how fast the partners come together. A high value points to fast association. With B6, the Kd was 49.5 nM and 77.5 nM; the koff was 0.00915 s⁻¹ and 0.00899 s⁻¹; the on-rate (kon) was 185000 M⁻¹ s⁻¹ and 116000 M⁻¹ s⁻¹.

Turning to B7, the Kd was 45.4 nM and 55 nM; the off-rate (koff) is 0.00593 s⁻¹ and 0.00734 s⁻¹; the kon is 131000 M⁻¹ s⁻¹ and 133000 M⁻¹ s⁻¹.

In the case of B8, the dissociation constant Kd was 210 nM and 251 nM; the koff was 0.019 s⁻¹ and 0.0275 s⁻¹; the on-rate constant (kon) is 90000 M⁻¹ s⁻¹ and 109000 M⁻¹ s⁻¹.

A further experiment concerns the target T1, hANGPTL3T (full-length HIS-tagged human …). The experiment is described as above. How it is done:
as §1, §2
B6: the Kd was 45.3 nM and 117 nM; the dissociation rate constant (koff) is 0.00796 s⁻¹ and 0.00953 s⁻¹; the on-rate (kon) is 176000 M⁻¹ s⁻¹ and 81200 M⁻¹ s⁻¹.

B7: the Kd was 48.1 nM and 45.2 nM; the koff was 0.00622 s⁻¹ and 0.00777 s⁻¹; the kon was 129000 M⁻¹ s⁻¹ and 172000 M⁻¹ s⁻¹.

Turning to B8, the dissociation constant (Kd) was 970 nM and 450 nM; the koff is 0.0216 s⁻¹ and 0.0273 s⁻¹; the kon was 22300 M⁻¹ s⁻¹ and 60000 M⁻¹ s⁻¹.

For the next experiment, the target named is T3, SP1 peptide (synthetic peptide with the …). As to the kind of experiment: SPR (BIACORE 3000), antibody captured on anti-mouse IgG Fc chip, SP1 peptide injected, 1:1 model. How it is done:
as §1
The BIACORE CM5 chip surface was coated with an anti-mouse IgG Fc by coupling 90 μg/ml of ImmunoPure Goat Anti-Mouse IgG Fc (Product No.: 31170, Pierce, Rockford, Ill. 61105) to the chip surface using an Amine Coupling Kit (Product No.: BR-1000-50, GE Healthcare, Uppsala Sweden). The antibody was then captured on the anti-mouse IgG Fc BIACORE chip surface by injecting the antibody at a flow rate of 10 μl/min for 30 sec. The association and dissociation phases, which are used to determine kₒₙ and koff constants, were generated by first injecting the SP1 peptide into the BIACORE® 3000 system having an antibody-coated chip surface for 2 minutes at a flow rate of 30 μl/min. […] The injection phase was used to determine the association rate constant, or kₒₙ. Following each injection, the SP1 peptide was dissociated from the antibody by flowing BIACORE HBS-EP buffer (Product No.: BR-1001-88, GE Healthcare, Uppsala Sweden) for 5 minutes over the peptide-antibody complex on the BIACORE CM5 chip surface. This dissociation phase was used to determine the dissociation rate constant, or koff. Prior to the next injection, the BIACORE chip surface was regenerated by injecting 10 mM HCl at a flow rate of 100 μl/min for 30 seconds.
Take B3: binding was characterised by a dissociation constant (Kd) of 26.1 nM, the koff was 0.00546 s⁻¹ and the association rate constant (kon) was 209000 M⁻¹ s⁻¹.

With B4, the Kd is 46.1 nM, the off-rate constant (koff) came out at 0.00778 s⁻¹ and the kon was found to be 169000 M⁻¹ s⁻¹.

Molecule B1 came in with a Kd of 1.78 nM, a koff of 0.00193 s⁻¹ and a kon of 1.08e+06 M⁻¹ s⁻¹.

For B2, the affinity, expressed as Kd, was 1.8 nM; the koff came to 0.0015 s⁻¹; the on-rate constant (kon) was 835000 M⁻¹ s⁻¹.
